Reference: patent US20130202609

Target: interleukin-8 (IL-8; CXCL8)

Protein | IL-8 cleavage, SDS-PAGE with silver staining | percentage of uncleaved IL-8, ELISA | uncleaved IL-8 after 24 h incubation, ELISA | IL-8 cleavage, SDS-PAGE with silver staining, 24 hours
GAS57 mutant D151A, His-tagged (protein) ADELSTMSEPTITNHAQQQAQHLTNTELSSAESKSQDTSQITLKTNREKEQSQDLVSEPTTTELADTDAASMANTGSDATQKSASLPPVNTDVHDWVKTKGAWDKGYKGQGKVVAVIATGIDPAHQSMRISDVSTAKVKSKEDMLARQKAAGINYGSWINDKVVFAHNYVENSDNIKENQFEDFDEDWENFEFDAEAEPKAIKKHKIYRPQSTQAPKETVIKTEETDGSHDIDWTQTDDDTKYESHGMHVTGIVAGNSKEAAATGERFLGIAPEAQVMFMRVFANDIMGSAESLFIKAIEDAVALGADVINLSLGTANGAQLSGSKPLMEAIEKAKKAGVSVVVAAGNERVYGSDHDDPLATNPDYGLVGSPSTGRTPTSVAAINSKWVIQRLMTVKELENRADLNHGKAIYSESVDFKDIKDSLGYDKSHQFAYVKESTDAGYNAQDVKGKIALIERDPNKTYDEMIALAKKHGALGVLIFNNKPGQSNRSMRLTANGMGIPSAFISHEFGKAMSQLNGNGTGSLEFDSVVSKAPSQKGNEMNHFSNWGLTSDGYLKPDITAPGGDIYSTYNDNHYGSQTGTSMASPQIAGASLLVKQYLEKTQPNLPKEKIADIVKNLLMSNAQIHVNPETKTTTSPRQQGAGLLNIDGAVTSGLYVTGKDNYGSISLGNITDTMTFDVTVHNLSNKDKTLRYDTELLTDHVDPQKGRFTLTSHSLKTYQGGEVTVPANGKVTVRVTMDVSQFTKELTKQMPNGYYLEGFVRFRDSQDDQLNRVNIPFVGFKGQFENLAVAEESIYRLKSQGKTGFYFDESGPKDDIYVGKHFTGLVTLGSETNVSTKTISDNGLHTLGTFKNADGKFILEKNAQGNPVLAISPNGDNNQDFAAFKGVFLRKYQGLKASVYHASDKEHKNPLWVSPESFKGDKNFNSDIRFAKSTTLLGTAFSGKSLTGAELPDGHYHYVVSYYPDVVGAKRQEMTFDMILDRQKPVLSQATFDPETNRFKPEPLKDRGLAGVRKDSVFYLERKDNKPYTVTINDSYKYVSVEDNKTFVERQADGSFILPLDKAKLGDFYYMVEDFAGNVAIAKLGDHLPQTLGKTPIKLKLTDGNYQTKETLKDNLEMTQSDTGLVTNQAQLAVVHRNQPQSQLTKMNQDFFISPNEDGNKDFVAFKGLKNNVYNDLTVNVYAKDDHQKQTPIWSSQAGASVSAIESTAWYGITARGSKVMPGDYQYVVTYRDEHGKEHQKQYTISVNDKKPMITQGRFDTINGVDHFTPDKTKALDSSGIVREEVFYLAKKNGRKFDVTEGKDGITVSDNKVYIPKNPDGSYTISKRDGVTLSDYYYLVEDRAGNVSFATLRDLKAVGKDKAVVNFGLDLPVPEDKQIVNFTYLVRDADGKPIENLEYYNNSGNSLILPYGKYTVELLTYDTNAAKLESDKIVSFTLSADNNFQQVTFKITMLATSQITAHFDHLLPEGSRVSLKTAQDQLIPLEQSLYVPKAYGKTVQEGTYEVVVSLPKGYRIEGNTKVNTLPNEVHELSLRLVKVGDASDSTGDHKVMSKNNSQALTASATPT | the GAS57 D151A mutant released only one band, which corresponded to uncleaved IL-8, as in the control reaction (without enzyme) | no inactivation was observed for IL-8 treated with the mutant enzyme | the mutants release 100% of uncleaved IL-8 after 24 h incubation | –
GAS57 mutant S617A, His-tagged (protein) ADELSTMSEPTITNHAQQQAQHLTNTELSSAESKSQDTSQITLKTNREKEQSQDLVSEPTTTELADTDAASMANTGSDATQKSASLPPVNTDVHDWVKTKGAWDKGYKGQGKVVAVIDTGIDPAHQSMRISDVSTAKVKSKEDMLARQKAAGINYGSWINDKVVFAHNYVENSDNIKENQFEDFDEDWENFEFDAEAEPKAIKKHKIYRPQSTQAPKETVIKTEETDGSHDIDWTQTDDDTKYESHGMHVTGIVAGNSKEAAATGERFLGIAPEAQVMFMRVFANDIMGSAESLFIKAIEDAVALGADVINLSLGTANGAQLSGSKPLMEAIEKAKKAGVSVVVAAGNERVYGSDHDDPLATNPDYGLVGSPSTGRTPTSVAAINSKWVIQRLMTVKELENRADLNHGKAIYSESVDFKDIKDSLGYDKSHQFAYVKESTDAGYNAQDVKGKIALIERDPNKTYDEMIALAKKHGALGVLIFNNKPGQSNRSMRLTANGMGIPSAFISHEFGKAMSQLNGNGTGSLEFDSVVSKAPSQKGNEMNHFSNWGLTSDGYLKPDITAPGGDIYSTYNDNHYGSQTGTAMASPQIAGASLLVKQYLEKTQPNLPKEKIADIVKNLLMSNAQIHVNPETKTTTSPRQQGAGLLNIDGAVTSGLYVTGKDNYGSISLGNITDTMTFDVTVHNLSNKDKTLRYDTELLTDHVDPQKGRFTLTSHSLKTYQGGEVTVPANGKVTVRVTMDVSQFTKELTKQMPNGYYLEGFVRFRDSQDDQLNRVNIPFVGFKGQFENLAVAEESIYRLKSQGKTGFYFDESGPKDDIYVGKHFTGLVTLGSETNVSTKTISDNGLHTLGTFKNADGKFILEKNAQGNPVLAISPNGDNNQDFAAFKGVFLRKYQGLKASVYHASDKEHKNPLWVSPESFKGDKNFNSDIRFAKSTTLLGTAFSGKSLTGAELPDGHYHYVVSYYPDVVGAKRQEMTFDMILDRQKPVLSQATFDPETNRFKPEPLKDRGLAGVRKDSVFYLERKDNKPYTVTINDSYKYVSVEDNKTFVERQADGSFILPLDKAKLGDFYYMVEDFAGNVAIAKLGDHLPQTLGKTPIKLKLTDGNYQTKETLKDNLEMTQSDTGLVTNQAQLAVVHRNQPQSQLTKMNQDFFISPNEDGNKDFVAFKGLKNNVYNDLTVNVYAKDDHQKQTPIWSSQAGASVSAIESTAWYGITARGSKVMPGDYQYVVTYRDEHGKEHQKQYTISVNDKKPMITQGRFDTINGVDHFTPDKTKALDSSGIVREEVFYLAKKNGRKFDVTEGKDGITVSDNKVYIPKNPDGSYTISKRDGVTLSDYYYLVEDRAGNVSFATLRDLKAVGKDKAVVNFGLDLPVPEDKQIVNFTYLVRDADGKPIENLEYYNNSGNSLILPYGKYTVELLTYDTNAAKLESDKIVSFTLSADNNFQQVTFKITMLATSQITAHFDHLLPEGSRVSLKTAQDQLIPLEQSLYVPKAYGKTVQEGTYEVVVSLPKGYRIEGNTKVNTLPNEVHELSLRLVKVGDASDSTGDHKVMSKNNSQALTASATPT | – | – | the mutants release 100% of uncleaved IL-8 after 24 h incubation | unable to cleave IL-8, even at a 100-fold higher concentration than wild-type GAS57
wild-type GAS57 (Spy0416), recombinant, purified from E. coli (protein) chain 1: ADELSTMSEPTITNHAQQQAQHLTNTELSSAESKSQDTSQITLKTNREKEQSQDLVSEPTTTELADTDAASMANTGSDATQKSASLPPVNTDVHDWVKTKGAWDKGYKGQGKVVAVIDTGIDPAHQSMRISDVSTAKVKSKEDMLARQKAAGINYGSWINDKVVFAHNYVENSDNIKENQFEDFDEDWENFEFDAEAEPKAIKKHKIYRPQ chain 2: STQAPKETVIKTEETDGSHDIDWTQTDDDTKYESHGMHVTGIVAGNSKEAAATGERFLGIAPEAQVMFMRVFANDIMGSAESLFIKAIEDAVALGADVINLSLGTANGAQLSGSKPLMEAIEKAKKAGVSVVVAAGNERVYGSDHDDPLATNPDYGLVGSPSTGRTPTSVAAINSKWVIQRLMTVKELENRADLNHGKAIYSESVDFKDIKDSLGYDKSHQFAYVKESTDAGYNAQDVKGKIALIERDPNKTYDEMIALAKKHGALGVLIFNNKPGQSNRSMRLTANGMGIPSAFISHEFGKAMSQLNGNGTGSLEFDSVVSKAPSQKGNEMNHFSNWGLTSDGYLKPDITAPGGDIYSTYNDNHYGSQTGTSMASPQIAGASLLVKQYLEKTQPNLPKEKIADIVKNLLMSNAQIHVNPETKTTTSPRQQGAGLLNIDGAVTSGLYVTGKDNYGSISLGNITDTMTFDVTVHNLSNKDKTLRYDTELLTDHVDPQKGRFTLTSHSLKTYQGGEVTVPANGKVTVRVTMDVSQFTKELTKQMPNGYYLEGFVRFRDSQDDQLNRVNIPFVGFKGQFENLAVAEESIYRLKSQGKTGFYFDESGPKDDIYVGKHFTGLVTLGSETNVSTKTISDNGLHTLGTFKNADGKFILEKNAQGNPVLAISPNGDNNQDFAAFKGVFLRKYQGLKASVYHASDKEHKNPLWVSPESFKGDKNFNSDIRFAKSTTLLGTAFSGKSLTGAELPDGHYHYVVSYYPDVVGAKRQEMTFDMILDRQKPVLSQATFDPETNRFKPEPLKDRGLAGVRKDSVFYLERKDNKPYTVTINDSYKYVSVEDNKTFVERQADGSFILPLDKAKLGDFYYMVEDFAGNVAIAKLGDHLPQTLGKTPIKLKLTDGNYQTKETLKDNLEMTQSDTGLVTNQAQLAVVHRNQPQSQLTKMNQDFFISPNEDGNKDFVAFKGLKNNVYNDLTVNVYAKDDHQKQTPIWSSQAGASVSAIESTAWYGITARGSKVMPGDYQYVVTYRDEHGKEHQKQYTISVNDKKPMITQGRFDTINGVDHFTPDKTKALDSSGIVREEVFYLAKKNGRKFDVTEGKDGITVSDNKVYIPKNPDGSYTISKRDGVTLSDYYYLVEDRAGNVSFATLRDLKAVGKDKAVVNFGLDLPVPEDKQIVNFTYLVRDADGKPIENLEYYNNSGNSLILPYGKYTVELLTYDTNAAKLESDKIVSFTLSADNNFQQVTFKITMLATSQITAHFDHLLPEGSRVSLKTAQDQLIPLEQSLYVPKAYGKTVQEGTYEVVVSLPKGYRIEGNTKVNTLPNEVHELSLRLVKVGDASDSTGDHKVMSKNNSQALTASATPT | Wild-type GAS57 (lanes 2 and 3) released two bands: 8 kDa (active form) and 6 kDa (inactive cleaved IL-8) | wild-type GAS57 almost completely inactivated IL-8 after 8 hours, even at the lower concentration | – | –
